In patent US20160272683A1 (Novo Nordisk, published 2016):
* marks the point of attachment. C18 diacid = O=C(O)CCCCCCCCCCCCCCCCC(=O)*

T1: human amylin receptor (human calcitonin receptor + human RAMP3) (human) (UniProt P30988)
T1 sequence (looked up) 1: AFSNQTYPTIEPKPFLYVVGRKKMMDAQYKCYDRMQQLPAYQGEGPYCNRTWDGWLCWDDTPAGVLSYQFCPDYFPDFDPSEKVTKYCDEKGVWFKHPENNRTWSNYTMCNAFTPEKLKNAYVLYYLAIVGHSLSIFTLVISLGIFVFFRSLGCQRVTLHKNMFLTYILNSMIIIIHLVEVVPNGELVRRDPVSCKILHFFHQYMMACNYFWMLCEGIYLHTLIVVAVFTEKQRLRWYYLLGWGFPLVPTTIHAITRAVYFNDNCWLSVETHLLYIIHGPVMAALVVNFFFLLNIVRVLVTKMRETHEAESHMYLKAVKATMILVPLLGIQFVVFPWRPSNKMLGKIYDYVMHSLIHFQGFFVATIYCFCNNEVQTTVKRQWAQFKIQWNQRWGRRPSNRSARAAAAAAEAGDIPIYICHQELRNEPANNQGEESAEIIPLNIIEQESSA
T1 sequence (looked up) 2: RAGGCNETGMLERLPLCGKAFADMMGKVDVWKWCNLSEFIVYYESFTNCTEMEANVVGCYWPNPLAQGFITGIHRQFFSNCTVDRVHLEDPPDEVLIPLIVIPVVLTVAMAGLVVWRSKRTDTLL

B1: [N-terminal(C18 diacid), 9V, 28P]mimylin (peptide)
peptide: {C18 diacid}-EASELSTAVLGRLSAELHELATLPRTEPGPESP-NH2
SMILES: CC(C)C[C@H](NC(=O)[C@H](CCC(=O)O)NC(=O)[C@H](Cc1c[nH]cn1)NC(=O)[C@H](CC(C)C)NC(=O)[C@H](CCC(=O)O)NC(=O)[C@H](C)NC(=O)[C@H](CO)NC(=O)[C@H](CC(C)C)NC(=O)[C@H](CCCNC(=N)N)NC(=O)CNC(=O)[C@H](CC(C)C)NC(=O)[C@@H](NC(=O)[C@H](C)NC(=O)[C@@H](NC(=O)[C@H](CO)NC(=O)[C@H](CC(C)C)NC(=O)[C@H](CCC(=O)O)NC(=O)[C@H](CO)NC(=O)[C@H](C)NC(=O)[C@H](CCC(=O)O)NC(=O)CCCCCCCCCCCCCCCCC(=O)O)[C@@H](C)O)C(C)C)C(=O)N[C@@H](C)C(=O)N[C@H](C(=O)N[C@@H](CC(C)C)C(=O)N1CCC[C@H]1C(=O)N[C@@H](CCCNC(=N)N)C(=O)N[C@H](C(=O)N[C@@H](CCC(=O)O)C(=O)N1CCC[C@H]1C(=O)NCC(=O)N1CCC[C@H]1C(=O)N[C@@H](CCC(=O)O)C(=O)N[C@@H](CO)C(=O)N1CCC[C@H]1C(N)=O)[C@@H](C)O)[C@@H](C)O
B2: [N-terminal(C18 diacid), 9V, 25P]mimylin (peptide)
peptide: {C18 diacid}-EASELSTAVLGRLSAELHELATLPPTETGPESP-NH2
SMILES: CC(C)C[C@H](NC(=O)[C@H](CCC(=O)O)NC(=O)[C@H](Cc1c[nH]cn1)NC(=O)[C@H](CC(C)C)NC(=O)[C@H](CCC(=O)O)NC(=O)[C@H](C)NC(=O)[C@H](CO)NC(=O)[C@H](CC(C)C)NC(=O)[C@H](CCCNC(=N)N)NC(=O)CNC(=O)[C@H](CC(C)C)NC(=O)[C@@H](NC(=O)[C@H](C)NC(=O)[C@@H](NC(=O)[C@H](CO)NC(=O)[C@H](CC(C)C)NC(=O)[C@H](CCC(=O)O)NC(=O)[C@H](CO)NC(=O)[C@H](C)NC(=O)[C@H](CCC(=O)O)NC(=O)CCCCCCCCCCCCCCCCC(=O)O)[C@@H](C)O)C(C)C)C(=O)N[C@@H](C)C(=O)N[C@H](C(=O)N[C@@H](CC(C)C)C(=O)N1CCC[C@H]1C(=O)N1CCC[C@H]1C(=O)N[C@H](C(=O)N[C@@H](CCC(=O)O)C(=O)N[C@H](C(=O)NCC(=O)N1CCC[C@H]1C(=O)N[C@@H](CCC(=O)O)C(=O)N[C@@H](CO)C(=O)N1CCC[C@H]1C(N)=O)[C@@H](C)O)[C@@H](C)O)[C@@H](C)O
B3: [N-terminal(C18 diacid), 4P, 9V]mimylin (peptide)
peptide: {C18 diacid}-EASPLSTAVLGRLSAELHELATLPRTETGPESP-NH2
SMILES: CC(C)C[C@H](NC(=O)[C@H](CCC(=O)O)NC(=O)[C@H](Cc1c[nH]cn1)NC(=O)[C@H](CC(C)C)NC(=O)[C@H](CCC(=O)O)NC(=O)[C@H](C)NC(=O)[C@H](CO)NC(=O)[C@H](CC(C)C)NC(=O)[C@H](CCCNC(=N)N)NC(=O)CNC(=O)[C@H](CC(C)C)NC(=O)[C@@H](NC(=O)[C@H](C)NC(=O)[C@@H](NC(=O)[C@H](CO)NC(=O)[C@H](CC(C)C)NC(=O)[C@@H]1CCCN1C(=O)[C@H](CO)NC(=O)[C@H](C)NC(=O)[C@H](CCC(=O)O)NC(=O)CCCCCCCCCCCCCCCCC(=O)O)[C@@H](C)O)C(C)C)C(=O)N[C@@H](C)C(=O)N[C@H](C(=O)N[C@@H](CC(C)C)C(=O)N1CCC[C@H]1C(=O)N[C@@H](CCCNC(=N)N)C(=O)N[C@H](C(=O)N[C@@H](CCC(=O)O)C(=O)N[C@H](C(=O)NCC(=O)N1CCC[C@H]1C(=O)N[C@@H](CCC(=O)O)C(=O)N[C@@H](CO)C(=O)N1CCC[C@H]1C(N)=O)[C@@H](C)O)[C@@H](C)O)[C@@H](C)O

Biological target: T1, human amylin receptor (human calcitonin receptor + human RAMP3) (human)
Assay: whole-cell competition vs 125I-rat amylin (Assay Va)

Row | Binder | IC50 [nM]
1 | B1 | 9
2 | B2 | 0.383
3 | B3 | 0.323
